Article PMC9860685, “α-Crystallin Domains of Five Human Small Heat Shock Proteins (sHsps) Differ in Dimer Stabilities and Ability to Incorporate Themselves into Oligomers of Full-Length sHsps” (International Journal of Molecular Sciences, 2023)

T1: full-length HspB6 (human, UniProt O14558 1-160)
T1 construct: Predominantly dimeric by cited work; also called B6FL
T1 sequence (looked up): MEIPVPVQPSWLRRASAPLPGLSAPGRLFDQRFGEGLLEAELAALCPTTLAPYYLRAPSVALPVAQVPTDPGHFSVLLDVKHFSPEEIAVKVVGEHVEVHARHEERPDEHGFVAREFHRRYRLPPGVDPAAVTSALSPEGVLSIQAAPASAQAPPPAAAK

B1: α-crystallin domain of HspB6 (B6ACD) (domain or fragment, human, UniProt O14558 64-149, looked up)
chain: VAQVPTDPGHFSVLLDVKHFSPEEIAVKVVGEHVEVHARHEERPDEHGFVAREFHRRYRLPPGVDPAAVTSALSPEGVLSIQAAPA
notes: human HspB6, α-crystallin domain, residues 64-149; Cloned by NdeI and XhoI into pET23b; In equilibrium of monomers and dimers; also called HspB6 ACD; source: E. coli, purified (ammonium sulfate fractionation, ion-exchange chromatography, size-exclusion chromatography)
B2: α-crystallin domain of HspB5 (B5ACD) (domain or fragment, human, UniProt P02511 64-150, looked up)
chain: GLSEMRLEKDRFSVNLDVKHFSPEELKVKVLGDVIEVHGKHEERQDEHGFISREFHRKYRIPADVDPLTITSSLSSDGVLTVNGPRK
notes: human HspB5 (αB-crystallin), α-crystallin domain, residues 64-150; Cloned by NdeI and XhoI into pET23b; In equilibrium of monomers and dimers; also called HspB5 ACD; source: E. coli, purified (ammonium sulfate fractionation, ion-exchange chromatography, size-exclusion chromatography)

Assays:
[1] = molecular target: T2, 3D mutant of HspB1 (S15D, S78D, S82D) (human, UniProt P04792 1-205, S15D | S78D | S82D); test: SEC; full-length sHsp (~19–20 μM per monomer) mixed with ACD (38–110 μM per monomer) in buffer B, 30 min at 42 °C; Superdex 200 Increase column in 50 mM phosphate pH 7.4, 150 mM NaCl, 2 mM DTT; fractions analysed by SDS–PAGE; conditions: both partners purified
T2 construct: human HspB1, full length, with three phosphomimicking point mutations; Forms small oligomers (probably dimers or tetramers, by cited work); also called full-length 3D mutant
T2 sequence (P04792 whole entry S15D/S78D/S82D): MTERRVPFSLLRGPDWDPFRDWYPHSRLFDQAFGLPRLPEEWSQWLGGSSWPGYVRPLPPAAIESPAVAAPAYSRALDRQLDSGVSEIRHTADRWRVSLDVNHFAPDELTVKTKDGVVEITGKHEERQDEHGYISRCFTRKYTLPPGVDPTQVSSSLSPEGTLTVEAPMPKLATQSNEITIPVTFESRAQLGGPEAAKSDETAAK

[2] = molecular target: the molecule itself; test: SEC; Superdex 75 10/300 GL, 50 mM phosphate pH 7.4, 150 mM NaCl, 2 mM DTT; 25 μL samples of 16–150 μg (25–600 μM per monomer); apparent dissociation constant, dimer to monomers, from a hyperbolic fit of elution volume against the concentration loaded
[3] = molecular target: the molecule itself; test: cross-linking; glutaraldehyde 0.008% or 0.024%, ACDs at 3 mg/mL in 25 mM HEPES pH 7.5, 30 min at 30 °C; Tricine–SDS–PAGE
full-length HspB6 = molecular target: T1, full-length HspB6; test: native gel or EMSA; clear native PAGE, 12.5% gel, 80 mM glycine–Tris pH 8.6; sHsp 5–6 μM per monomer mixed with ACD 20–24 μM per monomer, 30 min at 25 °C in buffer B; Western blot with anti-HspB6 for the complexes of HspB6; conditions: both partners purified

| Binder | binding result [1] | Kd [2] [µM] | stoichiometry N [3] | binding result (full-length HspB6) |
| --- | --- | --- | --- | --- |
| B1 | binds | 162 | – | – |
| B2 | binds | 127 | 2 | binds |
